Measured values as given in paper PMC4359373, “Mechanistic insight into the conserved allosteric regulation of periplasmic proteolysis by the signaling molecule cyclic-di-GMP” (eLife, 2014).

Molecular target: L. pneumophila CdgS9 periplasmic output domain (CdgS9^Output, residues 22-152) (L. pneumophila)
Test: […]; 25 mM Tris-HCl pH 7.4, 100 mM NaCl, 25°C; […]

Row | Substance | stoichiometry N | stoichiometry N (CdgS9^Output chains per LapG (2:1))
1 | L. pneumophila CdgS9 periplasmic output domain (CdgS9^Output, residues 22-152) (domain or fragment) | 2 | –
2 | L. pneumophila LapG (enzyme) | – | 2
